Assay results published in patent US20080124811A1 (AbbVie / Abbott, published 2008).

Columns and labels:
[1] = molecular target: T1, human brain natriuretic peptide, cyclic BNP (1-32c) (human, cyclic: ring closed by a disulfide bond between the two cysteine residues; biotinylated or acridinium-labelled in some assays); experiment: off-rate assay on yeast-displayed scFv by flow cytometry: biotinylated cyclic BNP (1-32c), chase with unlabelled BNP 1-32c, SA:PE, first order decay fit
T1 construct: also called hBNP; hBNP 1-32

[2] = molecular target: T1, human brain natriuretic peptide, cyclic …; experiment: off-rate assay on yeast-displayed scFv; improvement of koff over 3-631-436 wt

| koff [1] | Fold Improvement [2] | Binder |
| --- | --- | --- |
| 0.00015 s⁻¹ | 32 fold | L2 7 (scFv, selected by equilibrium sorting; member of group m17) scFv (VH-linker-VL with V5 and 6His tags), displayed on yeast: QVQLQQPGAELVRPGASVKLSCKASGYTFTSYWMNWVKQRPEQGLEWIGRIDPYDSETHYNQKFKDKAILTVDKSSSTAFVQLTSLTSEDSAVYYCVSDGYWGAGTTVTVSSGPAKELTPLKEAKVSDVVMTQTPLTLSVTTGQPASISCKSSQSLLDSDGKTYLNWLFQRPGESPKLLIYWMTKLESGVPDRFTGSGSGTDFTLKISRVEAEDLGVYYCLQATHFPWTFGGGTKLEIKRAAALESRGPFEGKPIPNPLLGLDSTRTGHHHHHH |
| 0.00049 s⁻¹ | 10 fold | 500-10 (scFv, selected by on/off-rate sorting; member of group m17) scFv (VH-linker-VL with V5 and 6His tags), displayed on yeast: QVQLQQPGAELVRPGASVKLSCKASGYTFTSYWMNWVKQRPEQGLEWIGRIDPYDSETHYNQKFKDKAILTVDKSSSTAFVQLTSLTSEDSAVYYCVSDGYWGAGTTVTVSSGPAKELTPLKEAKVSDVVMTQTPLTLSVTTGQPASISCKSSQSLLDSDGKTYLNWLFQRPGESPKLLIYVTDILESGVPDRFTGSGSGTDFTLKISRVEAEDLGVYYCLQATHFPWTFGGGTKLEIKRAAALESRGPFEGKPIPNPLLGLDSTRTGHHHHHH |
| 0.00053 s⁻¹ | 9 fold | 500-1 (scFv, selected by on/off-rate sorting; member of group m17) scFv (VH-linker-VL with V5 and 6His tags), displayed on yeast: QVQLQQPGAELVRPGASVKLSCKASGYTFTSYWMNWVKQRPEQGLEWIGRIDPYDSETHYNQKFKDKAILTVDKSSSTAFVQLTSLTSEDSAVYYCVSDGYWGAGTTVTVSSGPAKELTPLKEAKVSDVVMTQTPLTLSVTTGQPASISCKSSQSLLDSDGKTYLNWLFQRPGESPKLLIYWMDKLESGVPDRFTGSGSGTDFTLKISRVEAEDLGVYYCLQATHFPWTFGGGTKLEIKRAAALESRGPFEGKPIPNPLLGLDSTRTGHHHHHH |
| 0.00017 s⁻¹ | 28 fold | L2 8 (scFv, selected by equilibrium sorting; member of group m17) scFv (VH-linker-VL with V5 and 6His tags), displayed on yeast: QVQLQQPGAELVRPGASVKLSCKASGYTFTSYWMNWVKQRPEQGLEWIGRIDPYDSETHYNQKFKDKAILTVDKSSSTAFVQLTSLTSEDSAVYYCVSDGYWGAGTTVTVSSGPAKELTPLKEAKVSDVVMTQTPLTLSVTTGQPASISCKSSQSLLDSDGKTYLNWLFQRPGESPKLLIYWMNKLESGVPDRFTGSGSGTDFTLKISRVEAEDLGVYYCLQATHFPWTFGGGTKLEIKRAAALESRGPFEGKPIPNPLLGLDSTRTGHHHHHH |

The next lines start with the binder.

| Binder | koff [1] | Fold Improvement [2] |
| --- | --- | --- |
| 500-2 (scFv, selected by on/off-rate sorting; member of group m17) scFv (VH-linker-VL with V5 and 6His tags), displayed on yeast: QVQLQQPGAELVRPGASVKLSCKASGYTFTSYWMNWVKQRPEQGLEWIGRIDPYDSETHYNQKFKDKAILTVDKSSSTAFVQLTSLTSEDSAVYYCVSDGYWGAGTTVTVSSGPAKELTPLKEAKVSDVVMTQTPLTLSVTTGQPASISCKSSQSLLDSDGKTYLNWLFQRPGESPKLLIYWTTKLESGVPDRFTGSGSGTDFTLKISRVEAEDLGVYYCLQATHFPWTFGGGTKLEIKRAAALESRGPFEGKPIPNPLLGLDSTRTGHHHHHH | 0.00032 s⁻¹ | 15 fold |
| L2 4 (scFv, selected by equilibrium sorting; member of group m17) scFv (VH-linker-VL with V5 and 6His tags), displayed on yeast: QVQLQQPGAELVRPGASVKLSCKASGYTFTSYWMNWVKQRPEQGLEWIGRIDPYDSETHYNQKFKDKAILTVDKSSSTAFVQLTSLTSEDSAVYYCVSDGYWGAGTTVTVSSGPAKELTPLKEAKVSDVVMTQTPLTLSVTTGQPASISCKSSQSLLDSDGKTYLNWLFQRPGESPKLLIYHTTKLESGVPDRFTGSGSGTDFTLKISRVEAEDLGVYYCLQATHFPWTFGGGTKLEIKRAAALESRGPFEGKPIPNPLLGLDSTRTGHHHHHH | 0.0014 s⁻¹ | 4 fold |
| L2 1 (scFv, selected by equilibrium sorting; member of group m17) scFv (VH-linker-VL with V5 and 6His tags), displayed on yeast: QVQLQQPGAELVRPGASVKLSCKASGYTFTSYWMNWVKQRPEQGLEWIGRIDPYDSETHYNQKFKDKAILTVDKSSSTAFVQLTSLTSEDSAVYYCVSDGYWGAGTTVTVSSGPAKELTPLKEAKVSDVVMTQTPLTLSVTTGQPASISCKSSQSLLDSDGKTYLNWLFQRPGESPKLLIYQNTKLESGVPDRFTGSGSGTDFTLKISRVEAEDLGVYYCLQATHFPWTFGGGTKLEIKRAAALESRGPFEGKPIPNPLLGLDSTRTGHHHHHH | 0.00025 s⁻¹ | 19 fold |
